Measurements: PMC5052711

Key:
[1] = fluorometric membrane depolarization, 23°C vs 37°C; conditions: glycan lost; control: wild type (less sensitive at 23°C than at 37°C)
[2] = fluorometric membrane depolarization, FlexStation, 37°C; conditions: glycan lost; control: wild type
[3] = fluorometric membrane depolarization, maximal RFU; conditions: glycan lost; control: wild type
[4] = ratio of WT-relative surface to WT-relative total expression; conditions: glycan lost; control: wild type
[5] = whole-cell patch-clamp, 37°C; conditions: glycan lost; control: wild type
[6] = anti-FLAG WB of cell lysates, normalized to total protein; conditions: glycan lost; control: wild type
[7] = whole-cell patch-clamp, maximum amplitude; conditions: glycan lost; control: wild type

Row | Protein | other: temperature dependence of agonist sensitivity, EC50 [1] | other: agonist sensitivity, EC50 [2] | other: maximal channel response, other: mean maximal RFU [3] | localisation_or_trafficking, other: surface/total ratio relative to WT [4] | other: agonist sensitivity, EC50 [5] | expression_or_secretion, fold_change [6] | other: channel current [7]
1 | hTRPA1: N747/753Q (protein) parent chain: MKRSLRKMWRPGEKKEPQGVVYEDVPDDTEDFKESLKVVFEGSAYGLQNFNKQKKLKRCDDMDTFFLHYAAAEGQIELMEKITRDSSLEVLHEMDDYGNTPLHCAVEKNQIESVKFLLSRGANPNLRNFNMMAPLHIAVQGMNNEVMKVLLEHRTIDVNLEGENGNTAVIIACTTNNSEALQILLKKGAKPCKSNKWGCFPIHQAAFSGSKECMEIILRFGEEHGYSRQLHINFMNNGKATPLHLAVQNGDLEMIKMCLDNGAQIDPVEKGRCTAIHFAATQGATEIVKLMISSYSGSVDIVNTTDGCHETMLHRASLFDHHELADYLISVGADINKIDSEGRSPLILATASASWNIVNLLLSKGAQVDIKDNFGRNFLHLTVQQPYGLKNLRPEFMQMQQIKELVMDEDNDGCTPLHYACRQGGPGSVNNLLGFNVSIHSKSKDKKSPLHFAASYGRINTCQRLLQDISDTRLLNEGDLHGMTPLHLAAKNGHDKVVQLLLKKGALFLSDHNGWTALHHASMGGYTQTMKVILDTNLKCTDRLDEDGNTALHFAAREGHAKAVALLLSHNADIVLNKQQASFLHLALHNKRKEVVLTIIRSKRWDECLKIFSHNSPGNKCPITEMIEYLPECMKVLLDFCMLHSTEDKSCRDYYIEYNFKYLQCPLEFTKKTPTQDVIYEPLTALNAMVQNNRIELLNHPVCKEYLLMKWLAYGFRAHMMNLGSYCLGLIPMTILVVNIKPGMAFNSTGIINETSDHSEILDTTNSYLIKTCMILVFLSSIFGYCKEAGQIFQQKRNYFMDISNVLEWIIYTTGIIFVLPLFVEIPAHLQWQCGAIAVYFYWMNFLLYLQRFENCGIFIVMLEVILKTLLRSTVVFIFLLLAFGLSFYILLNLQDPFSSPLLSIIQTFSMMLGDINYRESFLEPYLRNELAHPVLSFAQLVSFTIFVPIVLMNLLIGLAVGDIAEVQKHASLKRIAMQVELHTSLEKKLPLWFLRKVDQKSTIVYPNKPRSGGMLFHIFCFLFCTGEIRQEIPNADKSLEMEILKQKYRLKDLTFLLEKQHELIKLIIQKMEIISETEDDDSHCSFQDRFKKEQMEQRNSRWNTVLRAVKAKTHHLEP | changes, 14.8 vs 13.5 | decreases, 20.9 vs 9.5 | no change, 866 vs 1155 | no change | decreases, 142.3 vs 35.0 | decreases | no change
2 | hTRPA1: N747Q (protein) parent chain: MKRSLRKMWRPGEKKEPQGVVYEDVPDDTEDFKESLKVVFEGSAYGLQNFNKQKKLKRCDDMDTFFLHYAAAEGQIELMEKITRDSSLEVLHEMDDYGNTPLHCAVEKNQIESVKFLLSRGANPNLRNFNMMAPLHIAVQGMNNEVMKVLLEHRTIDVNLEGENGNTAVIIACTTNNSEALQILLKKGAKPCKSNKWGCFPIHQAAFSGSKECMEIILRFGEEHGYSRQLHINFMNNGKATPLHLAVQNGDLEMIKMCLDNGAQIDPVEKGRCTAIHFAATQGATEIVKLMISSYSGSVDIVNTTDGCHETMLHRASLFDHHELADYLISVGADINKIDSEGRSPLILATASASWNIVNLLLSKGAQVDIKDNFGRNFLHLTVQQPYGLKNLRPEFMQMQQIKELVMDEDNDGCTPLHYACRQGGPGSVNNLLGFNVSIHSKSKDKKSPLHFAASYGRINTCQRLLQDISDTRLLNEGDLHGMTPLHLAAKNGHDKVVQLLLKKGALFLSDHNGWTALHHASMGGYTQTMKVILDTNLKCTDRLDEDGNTALHFAAREGHAKAVALLLSHNADIVLNKQQASFLHLALHNKRKEVVLTIIRSKRWDECLKIFSHNSPGNKCPITEMIEYLPECMKVLLDFCMLHSTEDKSCRDYYIEYNFKYLQCPLEFTKKTPTQDVIYEPLTALNAMVQNNRIELLNHPVCKEYLLMKWLAYGFRAHMMNLGSYCLGLIPMTILVVNIKPGMAFNSTGIINETSDHSEILDTTNSYLIKTCMILVFLSSIFGYCKEAGQIFQQKRNYFMDISNVLEWIIYTTGIIFVLPLFVEIPAHLQWQCGAIAVYFYWMNFLLYLQRFENCGIFIVMLEVILKTLLRSTVVFIFLLLAFGLSFYILLNLQDPFSSPLLSIIQTFSMMLGDINYRESFLEPYLRNELAHPVLSFAQLVSFTIFVPIVLMNLLIGLAVGDIAEVQKHASLKRIAMQVELHTSLEKKLPLWFLRKVDQKSTIVYPNKPRSGGMLFHIFCFLFCTGEIRQEIPNADKSLEMEILKQKYRLKDLTFLLEKQHELIKLIIQKMEIISETEDDDSHCSFQDRFKKEQMEQRNSRWNTVLRAVKAKTHHLEP | changes, 18.2 vs 13.5 |  | no change, 947 vs 1155 | increases | decreases, 141.0 vs 35.0 | decreases | no change
3 | hTRPA1: N753Q (protein) parent chain: MKRSLRKMWRPGEKKEPQGVVYEDVPDDTEDFKESLKVVFEGSAYGLQNFNKQKKLKRCDDMDTFFLHYAAAEGQIELMEKITRDSSLEVLHEMDDYGNTPLHCAVEKNQIESVKFLLSRGANPNLRNFNMMAPLHIAVQGMNNEVMKVLLEHRTIDVNLEGENGNTAVIIACTTNNSEALQILLKKGAKPCKSNKWGCFPIHQAAFSGSKECMEIILRFGEEHGYSRQLHINFMNNGKATPLHLAVQNGDLEMIKMCLDNGAQIDPVEKGRCTAIHFAATQGATEIVKLMISSYSGSVDIVNTTDGCHETMLHRASLFDHHELADYLISVGADINKIDSEGRSPLILATASASWNIVNLLLSKGAQVDIKDNFGRNFLHLTVQQPYGLKNLRPEFMQMQQIKELVMDEDNDGCTPLHYACRQGGPGSVNNLLGFNVSIHSKSKDKKSPLHFAASYGRINTCQRLLQDISDTRLLNEGDLHGMTPLHLAAKNGHDKVVQLLLKKGALFLSDHNGWTALHHASMGGYTQTMKVILDTNLKCTDRLDEDGNTALHFAAREGHAKAVALLLSHNADIVLNKQQASFLHLALHNKRKEVVLTIIRSKRWDECLKIFSHNSPGNKCPITEMIEYLPECMKVLLDFCMLHSTEDKSCRDYYIEYNFKYLQCPLEFTKKTPTQDVIYEPLTALNAMVQNNRIELLNHPVCKEYLLMKWLAYGFRAHMMNLGSYCLGLIPMTILVVNIKPGMAFNSTGIINETSDHSEILDTTNSYLIKTCMILVFLSSIFGYCKEAGQIFQQKRNYFMDISNVLEWIIYTTGIIFVLPLFVEIPAHLQWQCGAIAVYFYWMNFLLYLQRFENCGIFIVMLEVILKTLLRSTVVFIFLLLAFGLSFYILLNLQDPFSSPLLSIIQTFSMMLGDINYRESFLEPYLRNELAHPVLSFAQLVSFTIFVPIVLMNLLIGLAVGDIAEVQKHASLKRIAMQVELHTSLEKKLPLWFLRKVDQKSTIVYPNKPRSGGMLFHIFCFLFCTGEIRQEIPNADKSLEMEILKQKYRLKDLTFLLEKQHELIKLIIQKMEIISETEDDDSHCSFQDRFKKEQMEQRNSRWNTVLRAVKAKTHHLEP | no change, 18.0 vs 13.5 | no change, 10.5 vs 9.5 | no change, 902 vs 1155 | no change | no change, 42.0 vs 35.0 | decreases | no change
